Values quoted from earlier work in patent publication US8443799B2, “Dry powder inhalation system for transpulmonary administration” (Otsuka Pharmaceutical Co., Ltd., priority 2001, dated 2013).

Conditions: disclosure in WO 95/31479

interferon
deactivation during the spray drying process: about 25%
